Assay results taken from patent US9969998B2, “Compositions of adenosine deaminase-2 (ADA2), variants thereof and methods of using same” (Halozyme, Inc., priority 2014, dated 2018).

How the values were obtained:
[1] = Heparin-affinity chromatography (heparin-Sepharose, SDS-PAGE); type: binding; details: for Heparin Column Binding: compared to WT rHuADA2, 0.3 mg/mL protein
Experimental: To assess binding of variants to heparin, heparin-affinity chromatography was employed to identify heparin-bound variants. Heparin binding was tested by mixing 35 μL of rHuADA2 WT and variants with 20 μL heparin-Sepharose™ resin (GE Healthcare, Pittsburgh, Pa.; Cat. No. 17-0998-01), followed by incubating at room temperature for 30 min. The mixture was then centrifuged through a 0.22 μm centrifuge filter and the flow-through, containing the unbound protein, was collected for analysis on an SDS-PAGE gel. 35 μL of 1.5 M NaCl was added to heparin-Sepharose resin and incubated at room temperature (RT) for 10 min to elute the remaining heparin-bound protein from the heparin-Sepharose. Samples of purified WT rHuADA2 and tested variants, before and after mixing with the heparin-Sepharose resin, were analyzed by SDS-PAGE to compare the degree of heparin binding.

[2] = Adenosine deaminase (ADA) enzymatic activity assay kit; type: biochemical; details: for adenosine deaminase activity mU/mL / ΔA/min, adenosine deaminase activity: protein diluted to 5 μg/mL, serially diluted 2 fold (Table 21); for % activity vs. WT: relative to rHuADA2 WT (Table 21)

Molecule | heparin binding compared to WT [1] | % activity vs. WT [2] [%] | Heparin Column Binding [1] | enzymatic activity relative to WT rHuADA2 [2] | adenosine deaminase activity mU/mL [2] [mU/mL] | ΔA/min, adenosine deaminase activity [2]
K14E: ADA2 variant SEQ ID NO:15 (protein, human ADA2 K11E, mature numbering) IDETRAHLLLEEKMMRLGGRLVLNTKEELANERLMTLKIAEMKEAMRTLIFPPSMHFFQAKHLIERSQVFNILRMMPKGAALHLHDIGIVTMDWLVRNVTYRPHCHICFTPRGIMQFRFAHPTPRPSEKCSKWILLEDYRKRVQNVTEFDDSLLRNFTLVTQHPEVIYTNQNVVWSKFETIFFTISGLIHYAPVFRDYVFRSMQEFYEDNVLYMEIRARLLPVYELSGEHHDEEWSVKTYQEVAQKFVETHPEFIGIKIIYSDHRSKDVAVIAESIRMAMGLRIKFPTVVAGFDLVGHEDTGHSLHDYKEALMIPAKDGVKLPYFFHAGETDWQGTSIDRNILDALMLNTTRIGHGFALSKHPAVRTYSWKKDIPIEVCPISNQVLKLVSDLRNHPVATLMATGHPMVISSDDPAMFGAKGLSYDFYEVFMGIGGMKADLRTLKQLAMNSIKYSTLLESEKNTFMEIWKKRWDKFIADVATK | not attenuated | 114.2 | – | improved enzymatic activity | 89.1 | 38.8
K14A/K374A: ADA2 variant SEQ ID NO:58 (protein, human ADA2 K11A/K371A, mature numbering) IDETRAHLLLAEKMMRLGGRLVLNTKEELANERLMTLKIAEMKEAMRTLIFPPSMHFFQAKHLIERSQVFNILRMMPKGAALHLHDIGIVTMDWLVRNVTYRPHCHICFTPRGIMQFRFAHPTPRPSEKCSKWILLEDYRKRVQNVTEFDDSLLRNFTLVTQHPEVIYTNQNVVWSKFETIFFTISGLIHYAPVFRDYVFRSMQEFYEDNVLYMEIRARLLPVYELSGEHHDEEWSVKTYQEVAQKFVETHPEFIGIKIIYSDHRSKDVAVIAESIRMAMGLRIKFPTVVAGFDLVGHEDTGHSLHDYKEALMIPAKDGVKLPYFFHAGETDWQGTSIDRNILDALMLNTTRIGHGFALSKHPAVRTYSWAKDIPIEVCPISNQVLKLVSDLRNHPVATLMATGHPMVISSDDPAMFGAKGLSYDFYEVFMGIGGMKADLRTLKQLAMNSIKYSTLLESEKNTFMEIWKKRWDKFIADVATK | – | 100.5 | Reduced | – | 78.4 | 34.1
K14A/R23A: ADA2 variant SEQ ID NO:55 (protein, human ADA2 K11A/R20A, mature numbering) IDETRAHLLLAEKMMRLGGALVLNTKEELANERLMTLKIAEMKEAMRTLIFPPSMHFFQAKHLIERSQVFNILRMMPKGAALHLHDIGIVTMDWLVRNVTYRPHCHICFTPRGIMQFRFAHPTPRPSEKCSKWILLEDYRKRVQNVTEFDDSLLRNFTLVTQHPEVIYTNQNVVWSKFETIFFTISGLIHYAPVFRDYVFRSMQEFYEDNVLYMEIRARLLPVYELSGEHHDEEWSVKTYQEVAQKFVETHPEFIGIKIIYSDHRSKDVAVIAESIRMAMGLRIKFPTVVAGFDLVGHEDTGHSLHDYKEALMIPAKDGVKLPYFFHAGETDWQGTSIDRNILDALMLNTTRIGHGFALSKHPAVRTYSWKKDIPIEVCPISNQVLKLVSDLRNHPVATLMATGHPMVISSDDPAMFGAKGLSYDFYEVFMGIGGMKADLRTLKQLAMNSIKYSTLLESEKNTFMEIWKKRWDKFIADVATK | – | 124.2 | Reduced | – | 96.9 | 42.1
K14A/R23A/K374A: ADA2 variant SEQ ID NO:56 (protein, human ADA2 K11A/R20A/K371A, mature numbering) IDETRAHLLLAEKMMRLGGALVLNTKEELANERLMTLKIAEMKEAMRTLIFPPSMHFFQAKHLIERSQVFNILRMMPKGAALHLHDIGIVTMDWLVRNVTYRPHCHICFTPRGIMQFRFAHPTPRPSEKCSKWILLEDYRKRVQNVTEFDDSLLRNFTLVTQHPEVIYTNQNVVWSKFETIFFTISGLIHYAPVFRDYVFRSMQEFYEDNVLYMEIRARLLPVYELSGEHHDEEWSVKTYQEVAQKFVETHPEFIGIKIIYSDHRSKDVAVIAESIRMAMGLRIKFPTVVAGFDLVGHEDTGHSLHDYKEALMIPAKDGVKLPYFFHAGETDWQGTSIDRNILDALMLNTTRIGHGFALSKHPAVRTYSWAKDIPIEVCPISNQVLKLVSDLRNHPVATLMATGHPMVISSDDPAMFGAKGLSYDFYEVFMGIGGMKADLRTLKQLAMNSIKYSTLLESEKNTFMEIWKKRWDKFIADVATK | – | 93.3 | Reduced | – | 72.8 | 31.7

Now from value to molecule, other results behind:

heparin binding compared to WT [1] | % activity vs. WT [2] [%] | Heparin Column Binding [1] | Molecule | enzymatic activity relative to WT rHuADA2 [2] | adenosine deaminase activity mU/mL [2] [mU/mL] | ΔA/min, adenosine deaminase activity [2]
– | 102.8 | Reduced | R369D: ADA2 variant SEQ ID NO:32 (protein, human ADA2 R366D, mature numbering) IDETRAHLLLKEKMMRLGGRLVLNTKEELANERLMTLKIAEMKEAMRTLIFPPSMHFFQAKHLIERSQVFNILRMMPKGAALHLHDIGIVTMDWLVRNVTYRPHCHICFTPRGIMQFRFAHPTPRPSEKCSKWILLEDYRKRVQNVTEFDDSLLRNFTLVTQHPEVIYTNQNVVWSKFETIFFTISGLIHYAPVFRDYVFRSMQEFYEDNVLYMEIRARLLPVYELSGEHHDEEWSVKTYQEVAQKFVETHPEFIGIKIIYSDHRSKDVAVIAESIRMAMGLRIKFPTVVAGFDLVGHEDTGHSLHDYKEALMIPAKDGVKLPYFFHAGETDWQGTSIDRNILDALMLNTTRIGHGFALSKHPAVDTYSWKKDIPIEVCPISNQVLKLVSDLRNHPVATLMATGHPMVISSDDPAMFGAKGLSYDFYEVFMGIGGMKADLRTLKQLAMNSIKYSTLLESEKNTFMEIWKKRWDKFIADVATK | – | 80.2 | 34.9
– | 104.8 | Reduced | K375A: ADA2 variant SEQ ID NO:22 (protein, human ADA2 K372A, mature numbering) IDETRAHLLLKEKMMRLGGRLVLNTKEELANERLMTLKIAEMKEAMRTLIFPPSMHFFQAKHLIERSQVFNILRMMPKGAALHLHDIGIVTMDWLVRNVTYRPHCHICFTPRGIMQFRFAHPTPRPSEKCSKWILLEDYRKRVQNVTEFDDSLLRNFTLVTQHPEVIYTNQNVVWSKFETIFFTISGLIHYAPVFRDYVFRSMQEFYEDNVLYMEIRARLLPVYELSGEHHDEEWSVKTYQEVAQKFVETHPEFIGIKIIYSDHRSKDVAVIAESIRMAMGLRIKFPTVVAGFDLVGHEDTGHSLHDYKEALMIPAKDGVKLPYFFHAGETDWQGTSIDRNILDALMLNTTRIGHGFALSKHPAVRTYSWKADIPIEVCPISNQVLKLVSDLRNHPVATLMATGHPMVISSDDPAMFGAKGLSYDFYEVFMGIGGMKADLRTLKQLAMNSIKYSTLLESEKNTFMEIWKKRWDKFIADVATK | – | 81.8 | 35.5
– | 75.9 | Reduced | K374A: ADA2 variant SEQ ID NO:19 (protein, human ADA2 K371A, mature numbering) IDETRAHLLLKEKMMRLGGRLVLNTKEELANERLMTLKIAEMKEAMRTLIFPPSMHFFQAKHLIERSQVFNILRMMPKGAALHLHDIGIVTMDWLVRNVTYRPHCHICFTPRGIMQFRFAHPTPRPSEKCSKWILLEDYRKRVQNVTEFDDSLLRNFTLVTQHPEVIYTNQNVVWSKFETIFFTISGLIHYAPVFRDYVFRSMQEFYEDNVLYMEIRARLLPVYELSGEHHDEEWSVKTYQEVAQKFVETHPEFIGIKIIYSDHRSKDVAVIAESIRMAMGLRIKFPTVVAGFDLVGHEDTGHSLHDYKEALMIPAKDGVKLPYFFHAGETDWQGTSIDRNILDALMLNTTRIGHGFALSKHPAVRTYSWAKDIPIEVCPISNQVLKLVSDLRNHPVATLMATGHPMVISSDDPAMFGAKGLSYDFYEVFMGIGGMKADLRTLKQLAMNSIKYSTLLESEKNTFMEIWKKRWDKFIADVATK | – | 59.2 | 25.8
